Values quoted from earlier work, collected in patent US6872537B1, “Assays for the detection of microtubule depolymerization inhibitors” (Regents of the University of California, priority 1998, dated 2005).

Settings: literature values for comparison

p97: AAA ATPase cited for comparison [reference compound]
ATPase activity of other AAA family members: 1 ATP/sec
